In article PMC4199913 (The FEBS journal, 2014):

Experiments:
[1] = target: MaTrx6Δsp (Methanosarcina acetivorans, UniProt Q8TIA1); test: turbidimetric insulin reduction, […] nm; type: biochemical; conditions: 0.33 mM DTT, 0.13 mM insulin, 100 mM KPO4 pH 6.8, anaerobic
[2] = target: MaTrx2 (Methanosarcina acetivorans, UniProt Q8TL30); test: turbidimetric insulin reduction, […] nm; type: biochemical; conditions: 0.33 mM DTT, 0.13 mM insulin, 100 mM KPO4 pH 6.8, anaerobic
[3] = target: MaTrx7 (Methanosarcina acetivorans, UniProt Q8TR15); test: turbidimetric insulin reduction, […] nm; type: biochemical; conditions: 0.33 mM DTT, 0.13 mM insulin, 100 mM KPO4 pH 6.8, anaerobic
[4] = substrate: NC(=O)C1=CN([C@@H]2O[C@H](COP(=O)(O)OP(=O)(O)OC[C@H]3O[C@@H](n4cnc5c(N)ncnc54)[C@H](O)[C@@H]3O)[C@@H](O)[C@H]2O)C=CC1; test: purified protein; type: biochemical, Methanosarcina acetivorans; conditions: 1 mM DTNB, 0.5 µM MaTrxR, 50 mM Tris-HCl 150 mM NaCl pH 7.2, anaerobic
[5] = substrate: NC(=O)C1=CN([C@@H]2O[C@H](COP(=O)(O)OP(=O)(O)OC[C@H]3O[C@@H](n4cnc5c(N)ncnc54)[C@H](OP(=O)(O)O)[C@@H]3O)[C@@H](O)[C@H]2O)C=CC1; test: purified protein; type: biochemical, Methanosarcina acetivorans; conditions: 1 mM DTNB, 0.5 µM MaTrxR, 50 mM Tris-HCl 150 mM NaCl pH 7.2, anaerobic

OC(CS)C(O)CS (stereo not drawn) [DTT]
turbidimetric insulin reduction, 650 nm [1]: All three purified MaTrxs exhibited both DTT- and lipoamide-dependent insulin reduction activity
turbidimetric insulin reduction, 650 nm [2]: All three purified MaTrxs exhibited both DTT- and lipoamide-dependent insulin reduction activity
turbidimetric insulin reduction, 650 nm [3]: All three purified MaTrxs exhibited both DTT- and lipoamide-dependent insulin reduction activity

B1: MaTrxR (Methanosarcina acetivorans C2A) (protein)
chain: MNSFLFSGGNMYDLIIIGGGPAGLAAGIYAVRFGLDTLVLEKSEISGQISMSDIVENYPGFPSISGLELMEKYRTHAQEVGVKTKITEVLSVRTEGAKKIVSTDSGDLEAKTLIIATGANPKHLGVPGEKEFISKGVSYCAICDGPFFKNKTVVVVGGGNSAVTDALLLSKVAQNVYLIHRRDRLKAAKVLQDRALATPNIEFILNTLVQEIAGSREGVKKVEKVILQDLNSKESRELSTNGVFIYVGIQPNTEFVNVEKNNEGFIITNRWMETSEKGIYAAGDCRDTPIWQLVAAVRDGAIAATAANEYIESLK
Km [4]: 736 ± 57 µM
kcat [4]: 0.817 s⁻¹
kcat/Km [4]: 1120 M⁻¹ s⁻¹
Km [5]: 6.3 ± 0.5 µM
kcat [5]: 0.65 s⁻¹
kcat/Km [5]: 103000 M⁻¹ s⁻¹
